Assay results taken from US20160376555A1, “NOVEL METHODS TO REGENERATE HUMAN LIMBAL STEM CELLS” (The Regents of the University of California, priority 2012, published 2016).

Tests used:
Wnt3a activities [1] = test: Wnt reporter gene assay; format: cell-based; conditions: Dkk2 at 125 nM
From the text: As discussed above, Wnt/β-catenin and Notch pathways play pivotal roles in the fate determination decision between epidermal and corneal epithelial lineage in mice. In particular, Dkk2 is necessary for corneal development and activation of Notch1 is required to maintain the corneal lineage. Dkk2 alone or in combination with Notch1 activation may facilitate and increase the efficiency of the reprogramming process in humans. Functional recombinant Dkk2 protein can be provided by Dr. Jie Zheng (St. Jude Children's Research Hospital) (see, e.g. Lin et al., Proc Natl Acad Sci USA 2010; 107:4194-4199). It inhibits Wnt3a activities with an IC50 value around 8 nM in the Wnt reporter gene assay(see, e.g. Lujan et al., Proc Natl Acad Sci USA 2012; 109:2527-2532). Therefore, we can use the 3-step coculture protocol as described above and add Dkk2 to the culture medium at various concentrations starting at 8 nM to the Step 1 co-culture, which is the reprogramming step. Phenotypic analysis can be performed in each of the 3 steps to determine the outcome of transdifferentiation by the expression of K12 and K10 in the cultured epithelial cells. The optimal concentration of Dkk2 that achieves the highest portion of K12+ cells in Step 3 can be determined. This concentration of Dkk2 can be used. […]

Wnt3a activities [2] = conditions: functional recombinant Dkk2 protein; Wnt reporter gene assay; read-out: IC50, inhibition of Wnt3a activities; cited from earlier work

B1: Dkk2: Functional recombinant Dkk2 protein, a Wnt inhibitor (protein, UniProt Q9UBU2 34-259, looked up)
Dickkopf-related protein 2: KLNSIKSSLGGETPGQAANRSAGMYQGLAFGGSKKGKNLGQAYPCSSDKECEVGRYCHSPHQGSSACMVCRRKKKRCHRDGMCCPSTRCNNGICIPVTESILTPHIPALDGTRHRDRNHGHYSNHDLGWQNLGRPHTKMSHIKGHEGDPCLRSSDCIEGFCCARHFWTKICKPVLHQGEVCTKQRKKGSHGLEIFQRCDCAKGLSCKVWKDATYSSKARLHVCQKI
Wnt3a activities [1]
  inhibition: 90%
Wnt3a activities [2]
  IC50: ~8 nM
